Consider one molecule from publication PMC5317272 (The Biochemical journal, 2016).

Assay [1] deals with MARK1 kinase–UBA domain fragment (residues 45–371), hexahistidine tag intact (human, UniProt Q9P0L2 45-371). Kind of assay: SPR. Background: Surface plasmon resonance follows binding to a sensor surface in real time, without labels.
For assay [2], the target named is MARK1 kinase–UBA domain fragment (residues 45–371), tag-cleaved (human, UniProt Q9P0L2 45-371). Nature of the assay: SAXS.
Sequence of MARK1 kinase–UBA domain fragment (residues 45–371), tag-cleaved (Q9P0L2 45-371): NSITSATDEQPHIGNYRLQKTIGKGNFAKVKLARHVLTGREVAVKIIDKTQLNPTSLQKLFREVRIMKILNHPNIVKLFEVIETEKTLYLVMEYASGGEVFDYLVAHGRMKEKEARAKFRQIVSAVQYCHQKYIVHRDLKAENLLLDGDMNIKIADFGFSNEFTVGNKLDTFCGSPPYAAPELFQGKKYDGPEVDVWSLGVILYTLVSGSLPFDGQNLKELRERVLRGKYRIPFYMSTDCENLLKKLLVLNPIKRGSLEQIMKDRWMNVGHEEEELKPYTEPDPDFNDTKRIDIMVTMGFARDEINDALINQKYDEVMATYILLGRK

Sequence of MARK1 kinase–UBA domain fragment (residues 45–371), hexahistidine tag intact (Q9P0L2 45-371): as above

B1: MARK1 KA1 domain (residues 683–795) (domain or fragment)
chain: not shown
Molecule B1 yielded a Kd in assay [1] of 73 µM. Further, the “stoichiometry N” value in assay [2] came to 1.

As usually defined, the Kd is the equilibrium constant for the complex coming apart. Usually stoichiometry N stands for the number of molecules, sites or subunits per partner or assembly.
